In patent US20110262358A1 (SAPPORO MEDICAL UNIVERSITY, published 2011):
Non-standard residues stand in square brackets, D forms with d. No end group written: not given here.

B1: or7c1_131(10) (peptide)
peptide: HYTV[code i]MNPQL
notes: Synthetic OR7C1-derived peptide, printed HYTViMNPQL with a lower-case i

target: T1, HLA-A24 molecule (HLA-A2402) expressed on T2-A24 cells (human); assay: HLA-A24 stabilisation on T2A24 cells, flow cytometry with anti-HLA-A24 antibody
T1 construct: whole, on cells; MHC class I molecule on T2-A24 cells

Binding result, binds:
TYAGCLSQIF (also called peptide 93(10)) [or7c1_93(10)]
FYGTGFGVYL [or7c1_251(10)]
MYLVTFTGNL [or7c1_34(10)]
B1
MYTMVTPML [or7c1_277(9)]
